Test results as given in US10428140B2, “Anti-EphA4 antibody” (EISAI R&D MANAGEMENT CO., LTD., priority 2015, dated 2019).
Changes are numbered by the printed parent chain.

T1: human EphB2 (Homo sapiens, UniProt P29323)
T1 construct: a protein of the extracellular region of each human Eph receptor fused with the SEAP protein and the His tag; made in house; host or cells: Expi293F cells
T1 sequence (P29323 19-543 limits assumed): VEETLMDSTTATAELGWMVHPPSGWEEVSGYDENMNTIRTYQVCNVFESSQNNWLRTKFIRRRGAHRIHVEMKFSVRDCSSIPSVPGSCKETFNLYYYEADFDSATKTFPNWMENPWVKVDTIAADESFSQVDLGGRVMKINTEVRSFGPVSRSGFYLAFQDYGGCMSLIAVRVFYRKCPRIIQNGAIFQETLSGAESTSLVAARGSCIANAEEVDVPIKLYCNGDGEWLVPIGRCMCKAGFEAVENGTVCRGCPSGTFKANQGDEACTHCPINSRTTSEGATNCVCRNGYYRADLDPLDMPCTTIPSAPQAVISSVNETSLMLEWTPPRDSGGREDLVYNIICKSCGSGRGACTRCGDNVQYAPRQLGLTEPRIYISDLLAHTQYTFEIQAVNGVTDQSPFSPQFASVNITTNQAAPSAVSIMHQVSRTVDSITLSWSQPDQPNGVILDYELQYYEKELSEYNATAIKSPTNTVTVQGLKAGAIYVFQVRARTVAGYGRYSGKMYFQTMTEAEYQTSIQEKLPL

T2: human EphA10 (Homo sapiens, UniProt Q5JZY3)
T2 construct: a protein of the extracellular region of each human Eph receptor fused with the SEAP protein and the His tag; made in house; host or cells: Expi293F cells (culture supernatant)
T2 sequence (Q5JZY3 34-565 limits assumed): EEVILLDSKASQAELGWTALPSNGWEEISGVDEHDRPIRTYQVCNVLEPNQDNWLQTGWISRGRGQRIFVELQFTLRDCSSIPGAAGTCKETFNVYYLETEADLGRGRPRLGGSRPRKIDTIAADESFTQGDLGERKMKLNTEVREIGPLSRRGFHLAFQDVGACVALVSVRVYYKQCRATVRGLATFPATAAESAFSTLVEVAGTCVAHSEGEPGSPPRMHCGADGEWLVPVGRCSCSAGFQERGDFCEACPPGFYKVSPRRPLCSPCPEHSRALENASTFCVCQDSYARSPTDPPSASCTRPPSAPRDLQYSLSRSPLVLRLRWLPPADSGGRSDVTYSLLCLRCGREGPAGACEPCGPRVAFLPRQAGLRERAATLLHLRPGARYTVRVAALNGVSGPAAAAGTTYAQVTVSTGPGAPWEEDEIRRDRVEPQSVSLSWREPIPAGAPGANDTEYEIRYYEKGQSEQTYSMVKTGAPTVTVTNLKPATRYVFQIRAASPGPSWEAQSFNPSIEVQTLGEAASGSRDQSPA

T3: human EphB3 (Homo sapiens, UniProt P54753)
T3 construct: a protein of the extracellular region of each human Eph receptor fused with the SEAP protein and the His tag; made in house; host or cells: Expi293F cells
T3 sequence (P54753 34-559 limits assumed): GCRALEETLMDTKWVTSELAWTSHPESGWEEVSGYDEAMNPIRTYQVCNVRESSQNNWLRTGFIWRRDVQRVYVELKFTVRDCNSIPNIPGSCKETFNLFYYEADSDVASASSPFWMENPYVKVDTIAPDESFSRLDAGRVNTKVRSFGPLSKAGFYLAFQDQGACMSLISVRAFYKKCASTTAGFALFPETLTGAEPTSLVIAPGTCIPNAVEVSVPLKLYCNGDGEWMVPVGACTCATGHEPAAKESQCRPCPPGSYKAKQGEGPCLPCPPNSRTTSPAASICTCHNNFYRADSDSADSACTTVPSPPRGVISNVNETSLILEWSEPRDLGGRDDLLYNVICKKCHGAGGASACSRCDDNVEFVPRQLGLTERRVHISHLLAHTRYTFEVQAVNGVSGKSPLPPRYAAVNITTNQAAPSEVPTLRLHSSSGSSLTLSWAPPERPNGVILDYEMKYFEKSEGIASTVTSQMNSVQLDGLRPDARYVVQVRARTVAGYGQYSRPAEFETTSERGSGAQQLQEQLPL

B1: 73 (antibody, V domains shown)
VH: QIQLVQSGSELKKPGASVKVSCKASGYTFTDYSMHWVRQAPGQGLKWMGWINTETGEPTYADDFKGRFVFSLDTSVSTAYLQISSLKAEDTAVYYCARIPLYYYGSRYWYFDVWGQGTTVTVSS
VL: EIVMTQSPATLSVSPGERATLSCRASENIYRNLAWYQQKPGQSPRLLIYAATNLADGIPARFSGSGSGTEYTLTISSLQSEDFAVYYCQHFWGTPWTFGQGTKVEIK
modifications: synthetic humanized antibody heavy chain variable region sequence; synthetic humanized antibody light chain variable region sequence
B2: 138 (antibody, V domains shown)
VH: B1 VH with D62Q, D63G, K65T
VL: DIQMTQSPSSLSASVGDRVTITCRASENIYRNLAWYQQKPGKAPKLLVYAATNLADGVPSRFSGSGSGTDYTLTISSLQPEDFATYYCQHFWGTPWTFGQGTKVEIK
modifications: synthetic humanized antibody heavy chain variable region sequence; synthetic humanized antibody light chain variable region sequence
B3: 152 (antibody, V domains shown)
VH: B1 VH with I2V, K46E, D62Q, D63G, K65T
VL: B2 VL with V48L, P80S
modifications: synthetic humanized antibody heavy chain variable region sequence; synthetic humanized antibody light chain variable region sequence
B4: 140 (antibody, V domains shown)
VH: B1 VH with I2V, D62Q, D63G, K65T
VL: B2 VL
modifications: synthetic humanized antibody heavy chain variable region sequence; synthetic humanized antibody light chain variable region sequence
B5: 143 (antibody, V domains shown)
VH: B1 VH
VL: B2 VL
modifications: synthetic humanized antibody heavy chain variable region sequence; synthetic humanized antibody light chain variable region sequence
B6: 139 (antibody)
VH: B1 VH with I2V, K46E, D62Q, D63G, K65T
VL: B2 VL
chain: ASTKGPSVFPLAPSSRSTSESTAALGCLVKDYFPEPVTVSWNSGALTSGVHTFPAVLQSSGLYSLSSVVTVPSSNFGTQTYTCNVDHKPSNTKVDKTVERKSCVECPPCPAPPAAAPSVFLFPPKPKDTLMISRTPEVTCVVVDVSHEDPEVQFNWYVDGVEVHNAKTKPREEQFNSTFRVVSVLTVVHQDWLNGKEYKCKVSNKGLPAPIEKTISKTKGQPREPQVYTLPPSREEMTKNQVSLTCLVKGFYPSDIAVEWESNGQPENNYKTTPPMLDSDGSFFLYSKLTVDKSRWQQGNVFSCSVMHEALHNHYTQKSLSLSPG
modifications: synthetic humanized antibody heavy chain variable region sequence; synthetic humanized antibody light chain variable region sequence; synthetic antibody constant region sequence
B7: 141 (antibody, V domains shown)
VH: B1 VH with I2V, K46E
VL: B2 VL
modifications: synthetic humanized antibody heavy chain variable region sequence; synthetic humanized antibody light chain variable region sequence
B8: 151 (antibody, V domains shown)
VH: B1 VH with D62Q, D63G, K65T
VL: B2 VL with V48L, P80S
modifications: synthetic humanized antibody heavy chain variable region sequence; synthetic humanized antibody light chain variable region sequence
B9: 154 (antibody, V domains shown)
VH: B1 VH with I2V, K46E
VL: B2 VL with V48L, P80S
modifications: synthetic humanized antibody heavy chain variable region sequence; synthetic humanized antibody light chain variable region sequence
B10: 153 (antibody, V domains shown)
VH: B1 VH with I2V, D62Q, D63G, K65T
VL: B2 VL with V48L, P80S
modifications: synthetic humanized antibody heavy chain variable region sequence; synthetic humanized antibody light chain variable region sequence
B11: 142 (antibody, V domains shown)
VH: B1 VH with I2V
VL: B2 VL
modifications: synthetic humanized antibody heavy chain variable region sequence; synthetic humanized antibody light chain variable region sequence

Columns and labels:
Assay in all cases: Selectivity ELISA of humanized antibodies for human Eph receptor
Type in all cases: binding
Settings in all cases: coated protein 1 nM
human EphB2 = target: T1, human EphB2
Outline: (§1)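 Human Eph ECD-SEAP-His fusions, harvested after 5 days of Expi293F expression, are captured on anti-His-coated wells (1 nM final). Bound humanized antibody is detected with HRP anti-IgG and TMB at 450 nm.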

human EphA10 = target: T2, human EphA10
Outline: as §1

human EphB3 = target: T3, human EphB3
Outline: as §1

| Molecule | hEphB2-SEAP-: absorbance at 450 nm, percentage with respect to hEphA4-SEAP-His as 100% (human EphB2) [%] | hEphA10-SEAP-: absorbance at 450 nm, percentage with respect to hEphA4-SEAP-His as 100% (human EphA10) [%] | hEphB3-SEAP-: absorbance at 450 nm, percentage with respect to hEphA4-SEAP-His as 100% (human EphB3) [%] |
| --- | --- | --- | --- |
| B1 | 5.6 | 5.6 | 5.8 |
| B2 | 5.2 | 5.0 | 5.1 |
| B3 | 5.8 | 5.8 | 6.0 |
| B4 | 5.3 | 5.2 | 5.4 |
| B5 | 5.8 | 5.2 | 5.9 |
| B6 | 5.7 | 5.5 | 5.6 |
| B7 | 5.2 | 5.2 | 5.2 |
| B8 | 7.0 | 6.6 | 7.3 |
| B9 | 6.2 | 5.9 | 6.2 |
| B10 | 5.9 | 6.0 | 5.9 |
| B11 | 5.6 | 5.4 | 5.6 |
